Laboratory results reported in article PMC5009728 (Nucleic Acids Research, 2016).

Tests used:
[1] = biological target: 6×His-thioredoxin-fused ZAD domain of Zw5 (aa 1–103) (Drosophila melanogaster); assay: cross-linking
cross-linking = biological target: the molecule itself; assay: cross-linking

6×His-thioredoxin-fused ZAD domain of Zw5 (aa 1–103) (domain or fragment)
stoichiometry N [1]: 2

B1: 6×His-thioredoxin-fused ZAD domain of Grauzone (aa 1–84) (domain or fragment, Drosophila melanogaster, UniProt Q9U405 1-84, looked up)
chain: MDICRLCLRGVSGAQMCLQIFDVDSGESKVAEVLRQHFWFEVLPNDEISKVICNVCWTQVSEFHQFYVSIQEAQVIYATTSKFK
stoichiometry N (cross-linking): 2

B2: 6×His-thioredoxin-fused ZAD domain of Pita (aa 1–109) (domain or fragment, Drosophila melanogaster, UniProt Q95RQ8 1-109, looked up)
chain: MAAKLEVREAMLTEKRVCRFCLTEQKLASIFEENPRVKTTANLPLQIMAITAIEVYAGDGMPGHICLECRLLFEHCYRFKQMCKRAETLLRQYPLTGNWPSPLEKPRAP
stoichiometry N (cross-linking): 2

B3: 6×His-thioredoxin-fused ZAD domain of ZIPIC (aa 3–81) (domain or fragment, Drosophila, UniProt Q9VAB8 3-81, looked up)
chain: CCICQFSVRVPKDIHTDTVGHPPVLISELVLQCTRGTNYVLTEESSTICKKCCEKLARYHKSIQIARKLRGEILELIHS
stoichiometry N (cross-linking): 2
